According to patent publication US20180170984:

Target: APOBEC3A wild-type (Homo sapiens) (UniProt P31941)
Conditions: 5-nitroindole at positions 12-14; deamination activity

APOBEC3A wild-type (Homo sapiens), sequence (P31941 whole entry): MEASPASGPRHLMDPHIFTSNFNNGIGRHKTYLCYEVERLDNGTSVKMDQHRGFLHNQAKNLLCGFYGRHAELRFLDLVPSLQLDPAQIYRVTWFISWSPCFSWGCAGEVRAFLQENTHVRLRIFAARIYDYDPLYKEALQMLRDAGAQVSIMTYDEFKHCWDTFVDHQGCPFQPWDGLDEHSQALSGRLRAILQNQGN

In the case of “AAAAAAAAATCNNNAAAAAAA [+1 to +3 5-nitroindole substrate]”, the binding signal (fold lower than n3) is reported as 2.
